In IntAct's records for PubMed 9171338:

B1: Clathrin heavy chain (Saccharomyces cerevisiae), P22137 (parent)
chain: MSDLPIEFTELVDLMSLGISPQFLDFRSTTFESDHFVTVRETKDGTNSVAIVDLAKGNEVTRKNMGGDSAIMHPSQMVISVRANGTIVQIFNLETKSKLKSFTLDEPVIFWRWLSETTLGFVTARSILTSNVFDGNVNAKPQLLTLRHANLNNTQIINFVANKNLDWFAVVGILQENGRIAGRIQLFSKQRNISQAIDGHVAIFTNILLEGNGSTPVQVFVTGNRNATTGAGELRIIEIDHDASLPSQYQKETTDIFFPPDATNDFPIAVQVSEKYGIIYLLTKYGFIHLYELETGTNLFVNRITAESVFTAAPYNHENGIACINKKGQVLAVEISTSQIVPYILNKLSNVALALIVATRGGLPGADDLFQKQFESLLLQNDYQNAAKVAASSTSLRNQNTINRLKNIQAPPGAISPILLYFSTLLDKGKLNKEETIELARPVLQQDRKQLFEKWLKEDKLECSEELGDIVKPFDTTLALACYLRAGAHAKVISCLAELQQFEKIIPYCQKVGYQPNFLVLISSLIRSSPDRASEFAVSLLQNPETASQIDIEKIADLFFSQNHIQQGTSLLLDALKGDTPDQGHLQTRVLEVNLLHAPQVADAILGNNIFSHYDKPTIASLSEKAGLYQRALENYTDIKDIKRCVVHTNALPIDWLVGYFGKLNVEQSLACLKALMDNNIQANIQTVVQVATKFSDLIGPSTLIKLFEDYNATEGLYYYLASLVNLTEDKDVVYKYIEAAAKMKQYREIERIVKDNNVYDPERVKNFLKDANLEDQLPLVIVCDRFDFVHEMILYLYKSQNLKFIETYVQQVNPSKTAQVVGALLDMDCDEAFIQSLLQSVLGQVPINELTTEVEKRNRLKILLPFLEQSLSQGIQDQAVYNALAKIYIDSNNSPEKFLKENDQYDTLDVGHYCEKRDPYLAYIAYEKGQNDDDLIRITNENSMYKYQARYLLERSDLDLWNKVLNQENIHRRQLIDSVISVGIPELTDPEPVSLTVQAFMTNGLKLELIELLEKIILEPSPFNENVALQGLLLLSAIKYEPTKVSSYIEKLDNYDADEIAPLCIEHDLKEEAFEIYDKHEMYGKALKVLIEDIMSLDRAASYADKINTPELWSQIGTAQLDGLRIPDAIESYIKAEDPSNYENVIDIAEQAGKYEELIPFLLMARKTLKEPKIDGALILAYAELNKIHEIENLLAGSNVANLDHVGDKLFENKEYKAARLCYSAVSNYSKLASTLVYLGDYQAAVDTARKASNIKVWKLVNDACIEKKEFKLAQICGLNLIVHAEELDELVERYESNGYFEELISLFEAGLGLERAHMGMFTELAILYSKYEPDKTFEHLKLFWSRINIPKVIRAVEQAHLWSELVFLYAHYDEWDNAALTLIEKSTKDLDHAYFKEVVVKVSNLEIYYKAINFYVKFHPSLLVDLLTSLTPRLDIPRTVKIFSKSDNLPLIKPFLINVLPKNNSVVNQAYHDLMIEEEDYKALQDAVDSYDKFDQLGLASRLESHKLIFFKKIGALLYRRNKKWAKSLSILKEEKLWKDAIETAAISQDPKVVEALLTYFVETGNREGFVALLYAAYNLVRIEFVLEISWMNSLEDYIKPFEISIKKEQNDSIKKITEELAKKSGSNEEHKDGQPLMLMNSAMNVQPTGF
partner: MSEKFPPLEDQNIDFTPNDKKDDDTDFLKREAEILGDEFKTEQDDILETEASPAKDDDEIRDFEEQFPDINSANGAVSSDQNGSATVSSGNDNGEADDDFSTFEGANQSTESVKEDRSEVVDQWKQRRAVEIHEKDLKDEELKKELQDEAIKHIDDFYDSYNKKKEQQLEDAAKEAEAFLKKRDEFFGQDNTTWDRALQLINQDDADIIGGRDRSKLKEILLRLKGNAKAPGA

Variants of: B1
Conditions: with clc1_yeast CLC1, P17891

| Variant | effect of a mutation on the interaction |
| --- | --- |
| S1331F;S1347F;P1553L | with no effect |
| S1331F;S1347F | with no effect |
| S1331F;S1347F;E1590A | disrupting interaction strength |
| S1331F;S1347F;E1590K | disrupting interaction strength |
| S1347F;P1553L;E1590K | disrupting interaction strength |
| P1553L;E1590K | disrupting interaction strength |
| S1331F;S1347F;P1553L;E1590K | disrupting interaction strength |
| E1590K | disrupting interaction strength |
| S1347F;P1553L | with no effect |

Variants of: B1
Conditions: with clc1_yeast CLC1, P17891
Remark: another data set of the same source

| Variant | effect of a mutation on the interaction |
| --- | --- |
| S1331F;S1347F;E1590A | disrupting interaction strength |
| E1590A | disrupting interaction strength |
